B1: Pistol ribozyme (parent)
chain: GGGUCGUUGUUCCAUAAUCGCGUGGAUAUGGCACGCAAGUUUCUACCGGGCACCGUAAAUGUCCGACUGGAGCCGUUCGGGCGGCUAUAAACAGACCUCAGGCCCGAAGCGUGGCGGCACCUGCCGCCGGUGGUAAAAAAGAUCGGAAGAGCACACGUCU

Variants of: B1
Assay: aptazyme ON/OFF ratio, guanine; higher = stronger switching; co-transcriptional cleavage with and without guanine

Point of comparison: U7C U8C U10G U11G C13A, “aptazyme ON/OFF ratio” value 1.24. Against it:
- U7C G9A U10C U11G C12G C13U — lower, 1.09
- U7A U8A G9C U10A C12G — higher, 1.25
- U7C U8C G9C C12G C13G — lower, 1.07
- U7G U8A G9U U11A C12G C13U — lower, 1.04
- U7C U8G G9A U11A C13A — lower, 1.2
- U8G G9C U10C U11G C13A — lower, 1.17
- U7G U8A G9C U10C U11A C12G — lower, 1.05
- U7C U8G G9U U10A U11C C13G — lower, 1.05
- U7G G9A U10A U11G C13G — lower, 1.13
- U7G U8G G9C U10G U11G C13U — higher, 1.28
- U8G G9C U10A C12G C13A — lower, 1.16
- U7A G9A C12A C13G — lower, 1.13
- U7C U8C G9C U10A U11A C12U — lower, 1.09
- U7C U8A G9A U10A C12U C13U — higher, 1.28
- G9A U10C U11A — higher, 2.25
- U8A G9A U10G U11C C12A C13G — lower, 1.08
- U8C G9C U10C U11G C12G C13A — lower, 1.13
- U7G U8A U10C C13U — higher, 1.49
- U7A G9C U10C U11A C12U — lower, 1.04
- U7A U8C G9C U11C C12G — lower, 1.18
- U7C U8G U10C U11A C13G — lower, 1.16
- U8C G9A U10C U11C — higher, 1.25
- U7C U8G U10G U11G C12U — lower, 1.21
- U7C U8C G9C U10C U11G C12U C13A — lower, 1.09
- U7G U8A U10C U11C C13G — lower, 1.05
- U7G U8A U11G C12G C13U — higher, 1.4
- U7G U8A U10C U11C C12G C13A — higher, 1.32
- U8G G9A U10C U11A C12A C13U — lower, 1.16
- U7G U8A G9A U11A C12A — higher, 1.27
- U8C U10G U11C C12G — higher, 1.78
- U8G G9C U11G C12U C13A — lower, 1.1
- U7G G9U U10G U11G C12G C13A — lower, 1.1
- U7A U8C G9U U10C U11C C12U C13A — lower, 1.05
- U7C G9A U11G C12G — higher, 1.37
- G9A U10G U11G C13A — lower, 1.2
- U7A U8G U10G U11G C13U — higher, 1.32
- U7C G9A U10A U11C C13U — lower, 1.07
- U7A U8A G9C U10C U11C C13A — lower, 1.03
- U7G U8C U10A U11A C12G C13A — lower, 1.1
- U7A U8A G9C U10G U11A C12A C13G — lower, 1.12
- U7A U8C G9U U11A C12G — lower, 1.23
- U8C U11G C12G — lower, 1.23
- U7C G9A U10A C12A C13U — lower, 1.05
- U7C U8C U10A — higher, 1.35
- U7A U8G G9U U10G U11C C12G C13U — lower, 1.22
- U8G G9U U10C U11C C12U C13U — lower, 1.06
- U7G G9C U10A U11C C12U C13U — lower, 1.18
- U7A U8C G9C U10G C12G C13U — lower, 1.13
- U8C U10G U11G C13U — lower, 1.22
- U8C G9A U11A C12U C13A — lower, 1.21
- U7C U8C G9A U11G — higher, 1.62
- U7A U8A U10G U11C C13U — lower, 1.04
- U7G U8C G9U U10C C12A C13A — higher, 1.49
- U8C U10C U11C C12U C13G — higher, 1.26
- U8C G9C U10G U11C C12G C13U — lower, 1.17
- G9U U10C U11C C12A C13G — higher, 1.27
- U7G G9A U10C U11C C12U — lower, 1.07
- U7G U8A G9A U10G U11G C12G C13G — lower, 1.16
- U7A U8A U11C C12A — higher, 1.36
- G9C U10C C12G — lower, 1.06
- U7A U8A G9A U10A U11A C12G C13A — lower, 1.14
- U7A U8C G9C U11A C12U C13A — lower, 1.09
- U7G U8C G9C U10G C12U C13G — lower, 1.08
- U7C U8G G9A U10C U11C C13A — lower, 1.02
- U7A U8G G9A U10A C12U — higher, 1.37
- U7A U8C G9C U10C U11G C12G — lower, 1.08
- U7A U8C G9U U10C U11C C12A C13U — lower, 1.06
- U7A U8C G9A U10A U11C — lower, 1.07
- U7C U8G U10C U11A C12A C13G — lower, 1.14
- U8C G9C U10G U11A C12U — lower, 1.02
- U7A U10G U11C C12G C13U — higher, 1.34
- U7C U8G G9U U10A — lower, 1.12
- U8A G9C U10A C12U C13G — lower, 1.04
- U8A U11C C13A — lower, 1.13
- U7A U8C G9C C12G — lower, 1.09
- U7C U8A G9U U10G U11G C12G C13A — lower, 1.21
- U7G G9U U10A C12U C13A — lower, 1.06
- U7C U8G G9C U10C U11G C12G C13U — lower, 1.05
- U8C U10G C12G C13A — lower, 1.09
- U8A U10C U11G C12A C13A — higher, 1.26
- U7A U8A G9A U10G U11A C12U C13U — lower, 1.1
- U7C U8C G9C U10C U11A C13G — lower, 1.13
- U8G G9C U10G U11A C12U C13U — lower, 1.12
- U7G U8A U10C U11C C12A — higher, 1.46
- U7A G9U U10G U11A C12U — lower, 1.06
- U7A U10G U11G C12U C13G — lower, 1.23
- U7G U8C G9C U11A C12G C13G — lower, 1.16
- U7G U11A C12A C13U — lower, 1.22
- U7G U8G U10C U11A C12U C13A — higher, 1.37
- U7G U8G G9C U10A U11G C12G C13U — lower, 1.06
- U7G U8G G9A U10C U11C C12G C13U — lower, 1.12
- U8A G9C U10G U11A C12A C13A — lower, 1.18
- U8A U10G U11G C12G — lower, 1.23
- U7A U8A G9C U10C C12G C13A — lower, 0.99
- U7A U8G G9A U10G U11G C13G — higher, 1.42
- U7A U8A U10G C12U C13G — lower, 1.13
- U7A U8G U11G C12U C13U — lower, 1.22
- U7A U8C G9A U10G U11C C12G — lower, 1.22
- U7A U8A U11C C12U — higher, 1.48
- U7G U8G G9U U10C U11C C13A — higher, 1.28
- U7A U8A G9U U10C C12G C13U — higher, 1.4
- U7C U8C G9A U10G C12A C13G — lower, 1.09
- U7C U8C G9A U10A U11A C12G C13G — lower, 1.12
- G9A U11C C12A C13U — lower, 1.23
- U7G U8G U11G C13U — higher, 1.28
- U7G U8C G9C U11C C12U C13A — lower, 1.22
- G9U C12U C13U — higher, 1.34
- U7A U8A G9A U10C U11A C12A — lower, 1.08
- U8C G9C U10A C12G — higher, 1.25
- U7C U8C G9A U10G C12A C13A — lower, 1.13
- G9A U10C U11A C13A — higher, 1.41
- U8G G9A U10C U11C C12G C13G — lower, 1.1
- U8C G9A U10A U11A C13U — higher, 1.28
- U7C C12G C13G — lower, 1.17
- U7C U8A G9C U10A C13U — the same, 1.24
- U8C G9C U11A C12U — lower, 1.08
- U8G G9U U10A U11A C13G — lower, 1.09
- U7G G9U U10G C13G — lower, 1.21
- U7G G9U U10A C13A — higher, 1.44
- U7A U8A U11C C13U — lower, 1.23
- G9C U10C U11C C12A C13A — lower, 1.03
- U7A U8A G9U U10A U11G C12U C13U — higher, 1.27
- U8C G9C U10G U11G C12U C13A — lower, 1.07
- U7A G9U U11C C12G — lower, 1.18
- U7G G9A U10G U11A C13A — lower, 1.05
- U8G G9C C12U C13A — lower, 1.05
- U7A G9C U10C U11G C12U C13U — lower, 1.06
- G9C U10C C12G C13A — lower, 1.06
- G9C U10G C12U C13U — lower, 1.22
- U7C U8C U10C U11C C12A C13G — the same, 1.24
- U7G U8C U11G C12G C13G — lower, 1.11
- U7G U8G G9A U10G U11A C12A C13A — lower, 1.12
- U7C U8A G9U U10G U11C C12G — higher, 1.26
- U7C G9U U10G U11G C12U C13G — lower, 1.13
- U7C U8C U10C U11C C12A — the same, 1.24
- U7A U8A G9C U10C U11C C12U C13U — lower, 1.05
- U7A U8C G9A U11G C12A C13U — lower, 1.08
- U7G G9C U10C C12U — higher, 1.7
- U7C U8G U10C U11C C12A — higher, 1.48
- U7G U8G G9C U10C C12G — higher, 1.28
- U7C U8C G9A U10G U11G C12A — lower, 1.23
- U7A U8G G9U U10G U11A — lower, 1.16
- U7C U8G G9C U10C U11A C12G C13G — lower, 1.17
- U7C U8C G9U U10G U11A C12U — lower, 1.17
- U7C U8G G9A U11A C12A C13U — the same, 1.24
- U7C G9C U11C — lower, 1.03
- U7C U8A G9C U10C U11A — lower, 0.786
- U7A U8C U10A C13A — lower, 1.06
- U8C G9A U11C C12A C13A — lower, 1.15
- U7G U8G G9A U10C C12A C13U — higher, 1.32
- U7A U8C U10G U11C C12G C13U — higher, 1.57
- U7G U8A G9U U11A C12A — lower, 1.14
- U7C U8G G9U — higher, 3.71
- U7C G9A U10G U11A C12A C13U — lower, 1.16
- U7C G9U U10A C12G C13G — lower, 1.13
- U7A U8A G9U U11A C12G — higher, 1.33
- G9U U10G C13U — higher, 1.65
- U8A G9C U10G U11A C13G — lower, 1.06
- U7C U8G G9U U10A U11G C12U — lower, 1.19
- U7C G9C U10C C12A C13U — lower, 1.04
- U7G G9C U11C C12A C13A — higher, 1.42
- U7C U8G G9C U11G C12G C13U — lower, 1.09
- U8A G9U U11G C13U — the same, 1.24
- U7G U8C G9U U11A C12U C13G — lower, 1.17
- U7G U8A G9A U10C U11A C12U — lower, 1.08
- U7C U10G U11G C12G C13U — lower, 1.16

From the RNAGym collection of RNA variant scans (doi:10.1021/acssynbio.7b00057)
